For test [1], the target named is T1, murine PD-1 (Sino biological) (murine, UniProt Q02242 25-167, limits assumed).
T1 sequence (looked up): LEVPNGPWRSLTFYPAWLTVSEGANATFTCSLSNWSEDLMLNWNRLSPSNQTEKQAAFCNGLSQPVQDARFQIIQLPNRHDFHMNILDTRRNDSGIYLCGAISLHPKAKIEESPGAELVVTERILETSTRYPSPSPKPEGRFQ
The test can be described thus: ELISA on plate-coated murine PD-1. Here is the method: 3.3.1 Cross-reactivity to cynomolgus PD-1 and murine PD-1: Cross-reactivity was measured by ELISA. Plates (Nunc) were coated with cynomolgus PD-1 (Sino Biological) and murine PD-1 (Sino biological) at 1 μg/ml overnight at 4° C. After blocking and washing, […] antibodies were added to the plates and incubated at room temperature for 1 h. The plates were then washed and subsequently incubated with secondary antibody goat anti rat IgG1 HRP (Bethyl) and goat anti rat IgG2b HRP (Bethyl) for 45 min. After washing, TMB substrate was added and the interaction was stopped by 2M HCl. The absorbance at 450 nm was read using a microplate reader (Molecular Device).

Test [2] has as its target T2, human PD-1 expressed on cells (human, UniProt Q15116 25-288).
T2 construct: whole, on cells; also called PD-1 expressing CHO cell; PD-1 transfected CHO-S cells
The test can be described thus: FACS on CHO-S cells expressing human PD-1. Here is the method:
(§1) 3.1 Binding affinity of PD-1 antibodies to cell surface PD-1 molecules tested by flow cytometry (FACS): Antibody binding affinity to cell surface PD-1 was performed by FACS analysis. CHO-S cells expressing human PD-1 were transferred in to 96-well U-bottom plates (BD) at a density of 5×10⁵ cells/ml. Tested antibodies were 1:2 serially diluted in wash buffer (1×PBS/1% BSA) and incubated with cells at 4° C. for 1 h. The secondary antibody goat anti-human IgG Fc FITC (3.0 moles FITC per mole IgG, (Jackson Immunoresearch Lab) was added and incubated at 4° C. in the dark for 1 h. The cells were then washed once and resuspended in 1×PBS/1% BSA, and analyzed by flow cytometery (BD). Fluorescence intensity will be converted to bound molecules/cell based on the quantitative beads Quantum™ MESF Kits, Bangs Laboratories, Inc.). KD was calculated using Graphpad Prism5.

Test [3] concerns the target T2, human PD-1 expressed on cells. The test can be described thus: FACS on CHO-S cells expressing human PD-1, antibody in formulation buffer. Here is the method: as §1
Test [4] has the same target. Nature of the test: FACS on CHO-S cells expressing human PD-1, antibody in 1xPBS pH 7.4. Here is the method: as §1

For 5 molecules, binding result and EC50 results are on record in US20190270815A1 (WUXI BIOLOGICS IRELAND, published 2019).

T2 sequence (Q15116 25-288): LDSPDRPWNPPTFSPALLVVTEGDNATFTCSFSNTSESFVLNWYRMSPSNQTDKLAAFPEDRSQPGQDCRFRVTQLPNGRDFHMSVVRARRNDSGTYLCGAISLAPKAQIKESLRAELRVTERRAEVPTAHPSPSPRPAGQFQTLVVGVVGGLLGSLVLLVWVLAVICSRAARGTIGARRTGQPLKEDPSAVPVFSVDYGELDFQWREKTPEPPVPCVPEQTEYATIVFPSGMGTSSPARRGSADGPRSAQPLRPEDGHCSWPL

B1: 1.7.3 hAb (antibody, V domains shown)
VH: QLQLQESGPGLVKPSETLTLTCTVSGDSISSTTYYWVWIRQPPGKGLEWIGSISYSGNTYYNPSLKSRVTISVDTSKNHFSLKLSSVAATDTALYYCARHLGYNGRYLPFDYWGQGTLVTVSS
VL: QSALTQPASVSGSPGQSITISCTGTSSDVGFYNYVSWYQQHPGKAPELMIYDVTNRPSGVSDRFSGSKSGNTASLTISGLQAEDEADYYCSSYTSISTWVFGGGTKLTVL
notes: fully human monoclonal antibody with a human constant region of IgG4 isotype
For B1, in test [1], the binding result is recorded as “no binding (tested: 1 g/ml antibodies (so in the source))”. This molecule also returned a concentration giving a half-maximal response (EC50) in test [2] of approximately 2 nM.

B2: 1.103.11-v2 hAb (antibody, IgG4, V domains shown)
VH: QLQLQESGPGLVKPSETLTLTCTVSADSISSTTYYWVWIRQPPGKGLEWIGSISYSGSTYYNPSLKSRVTVSVDTSKNQFSLKLNSVAATDTALYYCARHLGYNGRYLPFDYWGQGTLVTVSS
VL: QSALTQPASVSGSPGQSITISCTGTSSDVGFYNYVSWYQQHPGKAPELMIYDVSNRPSGVSDRFSGSKSGNTASLTISGLQAEDEADYYCSSYTSISTWVFGGGTKLTVL
notes: human constant region of IgG4 isotype
As to B2, the EC50 in test [3] is approximately 3.12 nM; in test [4], approximately 2.52 nM.

B3: 1.49.9 hAb (antibody, V domains shown)
VH: QLQLQESGPGLVKPSETLSLTCTVSGGSISSSTYYWGWIRQPPGKGLEWIGSISYSGSTYYNPSLKSRVTISVDTSKNQFSLKLSSVTDADTAVYYCARHLGYNGRYLPFDYWGQGTLVTVSS
VL: QSALTQPASVSGSPGQSITISCTGTSSDVGFYNYVSWYQQHPGKAPEVMIYDVSNRPSGVSDRFSGSKSGNTASLTISGLQAEDEADYYCSSYTSISTWVFGGGTKLTVL
notes: as for B1
Take B3: in test [1], the binding result is “no binding (tested: 1 g/ml antibodies (so in the source))”. Besides, the EC50 in test [2] is approximately 2 nM.

B4: 1.153.7 hAb (antibody, V domains shown)
VH: EVQLLESGGGLVQPGGSLRLSCAASGFTFSSHAMSWVRQAPGKGLEWVSTITGGGGSIYYADSVKGRFTISRDNSKNTLYLQMNSLRAEDTAVYYCAKNRAGEGYFDYWGQGTLVTVSS
VL: SYELTQPLSVSVALGQTARITCGGDNIGNKDVHWYQQKPGQAPVLVIYRDSNRPSGIPEGFSGSNSGNTATLTISRAQAGDEADYYCQVWDSIWVFGGGTKLTVL
notes: as for B1
For B4, the binding result in test [1] is “no binding (tested: 1 g/ml antibodies (so in the source))”. The molecule also registered an EC50 in test [2] of approximately 2 nM.

B5: 1.139.15 hAb (antibody, V domains shown)
VH: QLQLQESGPGLVKPSETLSLTCTVSGGSISSTTYYWGWIRQPPGKGLEWIGSISYSGTTYYNPSLKSRVTIPVDTSKNQISLKLSSVTAADTSLYYCARHLGYNSNWYPFDYWGQGTLVTVSS
VL: QSALTQPPSVSGSPGQSVTISCTGTSSDVGSYNRVSWYQQPPGTAPEVIIYEVSNRPSGVPDRFSGSKSGNTASLTISGLQAEDEADYYCSSYTSSSTWVFGGGTKLTVL
notes: as for B1
Regarding B5, in test [1], the binding result is listed as “no binding (tested: 1 g/ml antibodies (so in the source))”. The same molecule registered an EC50 in test [2] of approximately 2 nM.
